Test results published in patent US20110044980A1 (AbbVie / Abbott, published 2011).

T1: NKG2D (human, UniProt P26718 1-216)
T1 construct: whole, on cells; also called NKGD
T1 sequence (looked up): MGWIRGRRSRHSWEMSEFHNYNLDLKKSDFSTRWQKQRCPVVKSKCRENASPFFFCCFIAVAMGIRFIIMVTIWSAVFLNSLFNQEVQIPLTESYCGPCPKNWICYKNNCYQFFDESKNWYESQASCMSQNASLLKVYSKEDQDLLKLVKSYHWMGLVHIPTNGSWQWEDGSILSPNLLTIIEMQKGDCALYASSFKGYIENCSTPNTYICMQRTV


Assays:
NKG2D [1] = target: T1, NKG2D; test: flow cytometry (FACSCanto), cells carrying the target (line not given), 2 ug/mL
NKG2D [2] = target: T1, NKG2D; test: flow cytometry (FACSCalibur), activated NK cells, 10 ug/ml, R-PE GMFI on CD56+ live cells

| Binder | FACS Geometric Mean C-terminal (NKG2D [2]) | FACS Geometric Mean N-terminal (NKG2D [2]) | other results |
| --- | --- | --- | --- |
| AB121 (antibody, V domains shown, also called NKGD (KYK-2.0); anti-NKG2D parent antibody) VH: QVQLVESGGGLVKPGGSLRLSCAASGFTFSSYGMHWVRQAPGKGLEWVAFIRYDGSNKYYADSVKGRFTISRDNSKNTLYLQMNSLRAEDTAVYYCAKDRGLGDGTYFDYWGQGTTVTVSS VL: QSALTQPASVSGSPGQSITISCSGSSSNIGNNAVNWYQQLPGKAPKLLIYYDDLLPSGVSDRFSGSKSGTSAFLAISGLQSEDEADYYCAAWDDSLNGPVFGGGTKLTVLG | – | – | FACS Geometric Mean (NKG2D [1]): 284; FACS Geometric Mean (NKG2D [2]): 31.1 |
| DVD1052 (bispecific antibody, DVD-Ig; the entries are the dual variable domains (outer VD - linker - inner VD) without constant domains; Outer AB121, inner AB001; also called NKG2D / CD-20 DVD-Ig; DVD1052H + DVD1052L) VH: QVQLVESGGGLVKPGGSLRLSCAASGFTFSSYGMHWVRQAPGKGLEWVAFIRYDGSNKYYADSVKGRFTISRDNSKNTLYLQMNSLRAEDTAVYYCAKDRGLGDGTYFDYWGQGTTVTVSSASTKGPSVFPLAPQVQLQQPGAELVKPGASVKMSCKASGYTFTSYNMHWVKQTPGRGLEWIGAIYPGNGDTSYNQKFKGKATLTADKSSSTAYMQLSSLTSEDSAVYYCARSTYYGGDWYFNVWGAGTTVTVSA VL: QSALTQPASVSGSPGQSITISCSGSSSNIGNNAVNWYQQLPGKAPKLLIYYDDLLPSGVSDRFSGSKSGTSAFLAISGLQSEDEADYYCAAWDDSLNGPVFGGGTKLTVLGQPKAAPSVTLFPPQIVLSQSPAILSPSPGEKVTMTCRASSSVSYIHWFQQKPGSSPKPWIYATSNLASGVPVRFSGSGSGTSYSLTISRVEAEDAATYYCQQWTSNPPTFGGGTKLEIKR | – | 36.4 | – |
| DVD1214 (bispecific antibody, DVD-Ig; dual variable domains only; Outer AB121, inner AB064; also called DVD1214H + DVD1214L) VH: QVQLVESGGGLVKPGGSLRLSCAASGFTFSSYGMHWVRQAPGKGLEWVAFIRYDGSNKYYADSVKGRFTISRDNSKNTLYLQMNSLRAEDTAVYYCAKDRGLGDGTYFDYWGQGTTVTVSSASTKGPSVFPLAPQVQLQESGPGLVKPSQTLSLTCTVSGYSISSDFAWNWIRQPPGKGLEWMGYISYSGNTRYQPSLKSRITISRDTSKNQFFLKLNSVTAADTATYYCVTAGRGFPYWGQGTLVTVSS VL: QSALTQPASVSGSPGQSITISCSGSSSNIGNNAVNWYQQLPGKAPKLLIYYDDLLPSGVSDRFSGSKSGTSAFLAISGLQSEDEADYYCAAWDDSLNGPVFGGGTKLTVLGQPKAAPSVTLFPPDIQMTQSPSSMSVSVGDRVTITCHSSQDINSNIGWLQQKPGKSFKGLIYHGTNLDDGVPSRFSGSGSGTDYTLTISSLQPEDFATYYCVQYAQFPWTFGGGTKLEIKR | – | 33.8 | – |
| DVD1054 (bispecific antibody, DVD-Ig; dual variable domains only; Outer AB121, inner AB006; also called DVD1054H + DVD1054L) VH: QVQLVESGGGLVKPGGSLRLSCAASGFTFSSYGMHWVRQAPGKGLEWVAFIRYDGSNKYYADSVKGRFTISRDNSKNTLYLQMNSLRAEDTAVYYCAKDRGLGDGTYFDYWGQGTTVTVSSASTKGPSVFPLAPQVQLQQSGAELVRPGSSVKISCKASGYAFSSYWMNWVKQRPGQGLEWIGQIWPGDGDTNYNGKFKGKATLTADESSSTAYMQLSSLASEDSAVYFCARRETTTVGRYYYAMDYWGQGTSVTVSS VL: QSALTQPASVSGSPGQSITISCSGSSSNIGNNAVNWYQQLPGKAPKLLIYYDDLLPSGVSDRFSGSKSGTSAFLAISGLQSEDEADYYCAAWDDSLNGPVFGGGTKLTVLGQPKAAPSVTLFPPDILLTQTPASLAVSLGQRATISCKASQSVDYDGDSYLNWYQQIPGQPPKLLIYDASNLVSGIPPRFSGSGSGTDFTLNIHPVEKVDAATYHCQQSTEDPWTFGGGTKLEIKR | – | 28.3 | – |
| DVD1055 (bispecific antibody, DVD-Ig; dual variable domains only; Outer AB006, inner AB121; also called DVD1055H + DVD1055L) VH: QVQLQQSGAELVRPGSSVKISCKASGYAFSSYWMNWVKQRPGQGLEWIGQIWPGDGDTNYNGKFKGKATLTADESSSTAYMQLSSLASEDSAVYFCARRETTTVGRYYYAMDYWGQGTSVTVSSASTKGPSVFPLAPQVQLVESGGGLVKPGGSLRLSCAASGFTFSSYGMHWVRQAPGKGLEWVAFIRYDGSNKYYADSVKGRFTISRDNSKNTLYLQMNSLRAEDTAVYYCAKDRGLGDGTYFDYWGQGTTVTVSS VL: DILLTQTPASLAVSLGQRATISCKASQSVDYDGDSYLNWYQQIPGQPPKLLIYDASNLVSGIPPRFSGSGSGTDFTLNIHPVEKVDAATYHCQQSTEDPWTFGGGTKLEIKRTVAAPSVFIFPPQSALTQPASVSGSPGQSITISCSGSSSNIGNNAVNWYQQLPGKAPKLLIYYDDLLPSGVSDRFSGSKSGTSAFLAISGLQSEDEADYYCAAWDDSLNGPVFGGGTKLTVLG | 21.2 | – | – |

Continued, in another order:

| FACS Geometric Mean C-terminal (NKG2D [2]) | FACS Geometric Mean N-terminal (NKG2D [2]) | Binder | other results |
| --- | --- | --- | --- |
| 31.7 | – | DVD1053 (bispecific antibody, DVD-Ig; dual variable domains only; Outer AB001, inner AB121; also called CD-20 / NKG2D DVD-Ig; DVD1053H + DVD1053L) VH: QVQLQQPGAELVKPGASVKMSCKASGYTFTSYNMHWVKQTPGRGLEWIGAIYPGNGDTSYNQKFKGKATLTADKSSSTAYMQLSSLTSEDSAVYYCARSTYYGGDWYFNVWGAGTTVTVSAASTKGPSVFPLAPQVQLVESGGGLVKPGGSLRLSCAASGFTFSSYGMHWVRQAPGKGLEWVAFIRYDGSNKYYADSVKGRFTISRDNSKNTLYLQMNSLRAEDTAVYYCAKDRGLGDGTYFDYWGQGTTVTVSS VL: QIVLSQSPAILSPSPGEKVTMTCRASSSVSYIHWFQQKPGSSPKPWIYATSNLASGVPVRFSGSGSGTSYSLTISRVEAEDAATYYCQQWTSNPPTFGGGTKLEIKRTVAAPSVFIFPPQSALTQPASVSGSPGQSITISCSGSSSNIGNNAVNWYQQLPGKAPKLLIYYDDLLPSGVSDRFSGSKSGTSAFLAISGLQSEDEADYYCAAWDDSLNGPVFGGGTKLTVLG | – |
| 31.7 | – | DVD1215 (bispecific antibody, DVD-Ig; dual variable domains only; Outer AB064, inner AB121; also called DVD1215H + DVD1215L) VH: QVQLQESGPGLVKPSQTLSLTCTVSGYSISSDFAWNWIRQPPGKGLEWMGYISYSGNTRYQPSLKSRITISRDTSKNQFFLKLNSVTAADTATYYCVTAGRGFPYWGQGTLVTVSSASTKGPSVFPLAPQVQLVESGGGLVKPGGSLRLSCAASGFTFSSYGMHWVRQAPGKGLEWVAFIRYDGSNKYYADSVKGRFTISRDNSKNTLYLQMNSLRAEDTAVYYCAKDRGLGDGTYFDYWGQGTTVTVSS VL: DIQMTQSPSSMSVSVGDRVTITCHSSQDINSNIGWLQQKPGKSFKGLIYHGTNLDDGVPSRFSGSGSGTDYTLTISSLQPEDFATYYCVQYAQFPWTFGGGTKLEIKRTVAAPSVFIFPPQSALTQPASVSGSPGQSITISCSGSSSNIGNNAVNWYQQLPGKAPKLLIYYDDLLPSGVSDRFSGSKSGTSAFLAISGLQSEDEADYYCAAWDDSLNGPVFGGGTKLTVLG | – |
